Data published in article PMC8576529, “Handling Several Sugars at a Time: a Case Study of Xyloglucan Utilization by Ruminiclostridium cellulolyticum” (mBio, 2021).
Like-named read-outs stand apart in the source and are kept apart here.

Tests used:
Galactokinase = target: T1, Galactokinase (Ruminiclostridium cellulolyticum, UniProt B8I0X2); assay: galactose phosphorylation, HPLC-RI; format: biochemical; conditions: 5 mM GTP, 25 mM MgCl2, 25 mM HEPES pH 7.0, 37°C; read-out: Substrate(s) (fixed cosubstrate concn)^a
T1 construct: gene galK; C-terminal 6xHis tag (pET28a-3238), E. coli BL21(DE3)
T1 sequence (B8I0X2 1-397): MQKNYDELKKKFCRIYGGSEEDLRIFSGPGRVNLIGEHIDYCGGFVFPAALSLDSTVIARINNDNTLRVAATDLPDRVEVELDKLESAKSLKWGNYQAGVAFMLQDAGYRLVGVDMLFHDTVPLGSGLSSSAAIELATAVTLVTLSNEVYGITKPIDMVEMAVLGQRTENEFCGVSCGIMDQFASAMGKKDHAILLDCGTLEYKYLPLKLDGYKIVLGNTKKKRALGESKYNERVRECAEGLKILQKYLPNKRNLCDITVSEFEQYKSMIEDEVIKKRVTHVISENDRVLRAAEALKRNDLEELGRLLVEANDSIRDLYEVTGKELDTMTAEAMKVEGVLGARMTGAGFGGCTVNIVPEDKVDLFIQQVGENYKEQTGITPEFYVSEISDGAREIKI
Source text: (§1) galactose phosphorylation, HPLC-RI on Galactokinase

β-Galactosidase Gal42A = target: T2, β-Galactosidase Gal42A; assay: pNPβGal hydrolysis, A400; format: biochemical, Ruminiclostridium cellulolyticum; conditions: substrate p-nitrophenyl-β-D-galactoside, 50 mM phosphate pH 7.0, 37°C, read-out: Mean enzyme concn (mM) ± SD^a / β-Galactosidase Gal42A
T2 construct: cytosolic enzyme, purified as formerly reported
Source text: pNPβGal hydrolysis, A400 on β-Galactosidase Gal42A

β-Glucosidase Glu3A = target: T3, β-Glucosidase Glu3A; assay: pNPβGlu hydrolysis, A400; format: biochemical, Ruminiclostridium cellulolyticum; conditions: competitive; substrate p-nitrophenyl-β-D-glucoside, 50 mM phosphate pH 7.0, 37°C; read-out: Mean enzyme concn (mM) ± SD^a / β-Glucosidase (Glu3A)
T3 construct: cytosolic enzyme, purified as formerly reported
Source text: pNPβGlu hydrolysis, A400 on β-Glucosidase Glu3A

α-Xylosidase Xyl31A = target: T4, α-Xylosidase Xyl31A (Ruminiclostridium cellulolyticum, UniProt B8I9A6); assay: isoprimeverose hydrolysis, HPAEC-PAD; format: biochemical; conditions: competitive; substrate isoprimeverose 0.5 to 8 mM, 50 mM phosphate pH 6.0, 37°C; read-out: Mean enzyme concn (mM) ± SD^a / α-Xylosidase (Xyl31A)
T4 construct: gene Ccel_1004; cytosolic enzyme, purified as formerly reported
T4 sequence (B8I9A6 entry or part of it): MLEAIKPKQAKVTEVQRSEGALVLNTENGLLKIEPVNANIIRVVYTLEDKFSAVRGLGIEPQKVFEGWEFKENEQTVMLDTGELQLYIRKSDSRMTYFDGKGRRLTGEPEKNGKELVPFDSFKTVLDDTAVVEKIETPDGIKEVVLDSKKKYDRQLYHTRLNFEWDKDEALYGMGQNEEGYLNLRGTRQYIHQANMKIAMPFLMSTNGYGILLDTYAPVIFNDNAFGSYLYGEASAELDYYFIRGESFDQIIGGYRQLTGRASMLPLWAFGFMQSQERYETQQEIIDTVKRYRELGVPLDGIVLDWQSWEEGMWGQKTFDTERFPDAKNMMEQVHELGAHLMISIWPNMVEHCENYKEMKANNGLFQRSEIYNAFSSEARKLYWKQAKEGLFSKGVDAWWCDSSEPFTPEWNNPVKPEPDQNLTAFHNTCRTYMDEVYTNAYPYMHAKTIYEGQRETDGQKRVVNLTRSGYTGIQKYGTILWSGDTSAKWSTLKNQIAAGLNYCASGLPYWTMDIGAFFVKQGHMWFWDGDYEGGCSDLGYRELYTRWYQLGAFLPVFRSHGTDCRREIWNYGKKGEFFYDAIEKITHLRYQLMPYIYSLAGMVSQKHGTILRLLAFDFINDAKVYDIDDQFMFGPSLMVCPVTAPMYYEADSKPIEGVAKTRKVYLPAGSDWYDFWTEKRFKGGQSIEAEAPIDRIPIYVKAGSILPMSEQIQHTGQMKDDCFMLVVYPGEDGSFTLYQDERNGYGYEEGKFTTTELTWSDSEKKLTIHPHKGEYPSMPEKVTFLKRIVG
Source text: isoprimeverose hydrolysis, HPAEC-PAD on α-Xylosidase Xyl31A

[1] = target: T5, Cellobiose phosphorylase CbpA (Ruminiclostridium cellulolyticum, UniProt B8I421); assay: cellobiose phosphorolysis, HPAEC-PAD; format: biochemical; conditions: competitive; cellobiose 0.05 to 10 mM varied, 50 mM phosphate, pH 7.0, 37°C; read-out: Inhibitor
T5 construct: gene Ccel_2109; C-terminal 6xHis tag, produced in E. coli, purified to homogeneity
T5 sequence (B8I421 1-811): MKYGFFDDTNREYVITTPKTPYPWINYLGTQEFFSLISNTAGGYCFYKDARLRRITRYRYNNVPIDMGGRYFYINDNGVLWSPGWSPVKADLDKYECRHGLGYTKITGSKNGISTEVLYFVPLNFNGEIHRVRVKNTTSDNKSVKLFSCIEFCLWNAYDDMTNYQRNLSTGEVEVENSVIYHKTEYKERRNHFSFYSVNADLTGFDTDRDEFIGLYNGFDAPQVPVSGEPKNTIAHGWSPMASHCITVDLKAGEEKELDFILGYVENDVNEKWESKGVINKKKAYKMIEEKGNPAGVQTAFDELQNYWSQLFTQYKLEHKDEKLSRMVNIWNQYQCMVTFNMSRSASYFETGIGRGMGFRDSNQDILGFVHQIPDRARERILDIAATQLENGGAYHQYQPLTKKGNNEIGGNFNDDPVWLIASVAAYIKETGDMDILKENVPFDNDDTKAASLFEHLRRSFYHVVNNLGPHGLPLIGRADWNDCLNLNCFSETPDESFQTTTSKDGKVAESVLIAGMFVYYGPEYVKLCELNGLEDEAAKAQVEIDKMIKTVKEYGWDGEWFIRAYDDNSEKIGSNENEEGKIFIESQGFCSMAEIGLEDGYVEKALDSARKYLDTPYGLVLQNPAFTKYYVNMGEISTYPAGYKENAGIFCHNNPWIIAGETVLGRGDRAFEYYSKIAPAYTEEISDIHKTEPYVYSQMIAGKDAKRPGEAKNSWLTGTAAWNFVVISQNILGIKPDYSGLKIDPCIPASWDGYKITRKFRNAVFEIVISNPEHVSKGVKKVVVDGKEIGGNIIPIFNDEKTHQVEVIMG
Source text: cellobiose phosphorolysis, HPAEC-PAD on Cellobiose phosphorylase CbpA

isomerization, HPLC-RI = substrate: O=C(CO)[C@@H](O)[C@H](O)CO; assay: isomerization, HPLC-RI; format: biochemical, Ruminiclostridium cellulolyticum; conditions: 10 mM MgCl2, 25 mM HEPES pH 7.0, 37°C
Source text: isomerization, HPLC-RI on Xylose isomerase

isomerization, HPAEC-PAD = substrate: O=P(O)(O)O[C@H]1O[C@H](CO)[C@@H](O)[C@H](O)[C@H]1O; assay: isomerization, HPAEC-PAD; format: biochemical, Ruminiclostridium cellulolyticum; conditions: 25 mM HEPES pH 7.0, 37°C
Source text: isomerization, HPAEC-PAD on α-Phosphoglucomutase

purified protein [2] = substrate: Nc1nc2c(ncn2[C@@H]2O[C@H](COP(=O)(O)OP(=O)(O)OP(=O)(O)O)[C@@H](O)[C@H]2O)c(=O)[nH]1; assay: purified protein; format: biochemical, Ruminiclostridium cellulolyticum; conditions: 5 mM glucose, 25 mM MgCl2, 25 mM HEPES pH 7.0, 37°C
Source text: (§2) glucose phosphorylation, HPLC-RI on Hexokinase

purified protein [3] = substrate: Nc1ncnc2c1ncn2[C@@H]1O[C@H](COP(=O)(O)OP(=O)(O)OP(=O)(O)O)[C@@H](O)[C@H]1O; assay: purified protein; format: biochemical, Ruminiclostridium cellulolyticum; conditions: 5 mM glucose, 25 mM MgCl2, 25 mM HEPES pH 7.0, 37°C, ATP tested only up to 20 mM (below Km)
Source text: as §2

[4] = substrate: Nc1nc2c(ncn2[C@@H]2O[C@H](COP(=O)(O)OP(=O)(O)OP(=O)(O)O)[C@@H](O)[C@H]2O)c(=O)[nH]1; assay: galactose phosphorylation, HPLC-RI; format: biochemical, Ruminiclostridium cellulolyticum; conditions: 100 mM galactose, 25 mM MgCl2, 25 mM HEPES pH 7.0, 37°C
Source text: as §1

[5] = substrate: Nc1ncnc2c1ncn2[C@@H]1O[C@H](COP(=O)(O)OP(=O)(O)OP(=O)(O)O)[C@@H](O)[C@H]1O; assay: galactose phosphorylation, HPLC-RI; format: biochemical, Ruminiclostridium cellulolyticum; conditions: 100 mM galactose, 25 mM MgCl2, 25 mM HEPES pH 7.0, 37°C
Source text: as §1

OC[C@H]1OC(O)[C@H](O)[C@@H](O)[C@H]1O (stereo partly shown) [Galactose]
Km (Galactokinase): 15.5 ± 1.8 mM | Ki (β-Galactosidase Gal42A; competitive): 2.35 ± 0.05 mM

OC[C@H]1O[C@@H](O[C@H]2[C@H](O)[C@@H](O)C(O)O[C@@H]2CO)[C@H](O)[C@@H](O)[C@@H]1O (stereo partly shown) [Cellobiose]
Ki (β-Galactosidase Gal42A; noncompetitive): 19.3 ± 1.41 mM | Ki (β-Glucosidase Glu3A): 36.3 ± 5.57 mM

OC[C@H]1OC(O)[C@H](O)[C@@H](O)[C@@H]1O (stereo partly shown) [Glucose]
Ki (α-Xylosidase Xyl31A): 1.83 ± 0.42 mM | Ki [1]: 0.68 ± 0.04 mM | Ki (β-Glucosidase Glu3A): 3.99 ± 0.33 mM

B1: Xylose isomerase (Ruminiclostridium cellulolyticum H10) (protein)
chain: MSEVFSGISNIKFEGSGSDNPLAFKYYDPKAVIGGKTMEEHLRFAVAYWHTFAAPGADMFGAGSYVRPWNTMSDPLEIAKYKVEANFEFIEKLGAPFFAFHDRDIAPEGDTLAETNKNLDTIVSVIKDRMKSSPVKLLWGTTNAFGNPRFMHGASTSPNADIFAYAAAQVKKAMEITKELGGENYVFWGGREGYETLLNTDMKLELDNLARFLKMAVDYAKEIGFDGQFLIEPKPKEPTKHQYDFDTATVIGFLKTYGLDPYFKMNIEANHATLAGHTFQHELAMCRINDMLGSIDANQGDVMLGWDTDQFPTNLYDATLAMVEVLKAGGLKKGGLNFDSKVRRGSFEPSDLFYGHIAGMDTFAKGLIIANKIVEDGKFDAFVADRYSSYTNGIGKDIVEGKVGFKELEQYALTAKIQNKSGRQEMLEALLNQYILETK
notes: C-terminal 6xHis tag (plasmid printed as pET28a-3439), E. coli BL21(DE3)
Km (isomerization, HPLC-RI): 2.0 ± 0.2 mM | kcat (isomerization, HPLC-RI): 63.5 ± 1.8 IU μmol^−1

B2: α-Phosphoglucomutase (Ruminiclostridium cellulolyticum H10) (protein)
chain: MEYLSKLNFWLDNEYFDQDTKNELLSIKNNAKEVEDRFYKSLEFGTGGLRGIIGAGTNRINIYTVRVASQGLANYINQMGKQDKGIVIAYDPRFMSPEFSLEAAKVFCANGIKAYLFDELRPTPQLSFAVRYLKAAAGVVVTASHNPKQYNGYKVYGEDGGQLSIDGSNAVISEINKITDITKVNIISKEDAASKGLLQIIGSEIDDAYIEMLKKLRINKDAVSKVADTFKIVYTPLHGAGNKPVRRILAESGFKEVLVVKEQELPDSQFSTVKSPNPEERSAFELAIKLASDNNVDLIIGTDPDSDRVGVVVRKNDGEYAVLTGNQTGCLLLEYILTAMKEEGKLPANGFVVKTIVTTELARIIADFYNVELVEVLTGFKFIGEQIKLRDENGNQKYLFGFEESYGYLAGTDVRDKDAVVASMLVAEMAAYYKVKGISLYDALTNLYEKYGYFVEGISSFTLEGKDGVMKIKEALTTMRKTKYESFGGIKVKAIRDYQKSERHVIASGATEKITLPESDVLYFEMEDGSWFCVRPSGTEPKIKIYYGVSDRTLNLSQDKLEKFKAGVLDVIKPLL
notes: C-terminal 6xHis tag (pET28a-1417), E. coli BL21(DE3)
Km (isomerization, HPAEC-PAD): 0.155 ± 0.055 mM | kcat (isomerization, HPAEC-PAD): 1,768 ± 19 IU μmol^−1

B3: Hexokinase (Ruminiclostridium cellulolyticum H10) (protein)
chain: MGSKLEIVQDVINAFEVNKESMLRTAMLFKETMEKSLNGEKTCLKMLPSYIGKPTGKEQGTFMTIDMGGTNFRCTKYKINNGNFEKVGEIKQKLINKEKNYDLTKSDSDEKQLFGFMAECIGELLEPEESLYLGNTFSFPCRQEGINDAYLIQWTKEITTSGVVGQNINKLLEQSLKEKNINVKPVAILNDTVGTLLVAMYSYQTADIGSIMGTGHNTCYLENNHPLNGQKMIVNIESGNYNVGLPVTKYDEIIDKNSQIPGAQLLEKMVSGYYMGSLLKEVCKDLYKNNALFTNEDVDIDAFFNQNFNALMVENFILYPSNTKEQYKCSIEDAEIVKRVSEAILKRTVRLVAVSHMGILFHQENSGTSVNNEHVIAIDGTIYEKMPNAPQLMKEAFREALGDDASNIEIRLVKDGSGLGAAIAAAFAVTQ
notes: C-terminal 6xHis tag (pET28a-3221), E. coli BL21(DE3)
Km (purified protein [2]): 0.40 ± 0.07 mM | kcat (purified protein [2]): 11,160 ± 543 IU μmol^−1 | Km (purified protein [3]): 32.2 ± 7.4 mM | kcat (purified protein [3]): 8,781 ± 1,418 IU μmol^−1

B4: Galactokinase (Ruminiclostridium cellulolyticum H10) (protein)
chain: MQKNYDELKKKFCRIYGGSEEDLRIFSGPGRVNLIGEHIDYCGGFVFPAALSLDSTVIARINNDNTLRVAATDLPDRVEVELDKLESAKSLKWGNYQAGVAFMLQDAGYRLVGVDMLFHDTVPLGSGLSSSAAIELATAVTLVTLSNEVYGITKPIDMVEMAVLGQRTENEFCGVSCGIMDQFASAMGKKDHAILLDCGTLEYKYLPLKLDGYKIVLGNTKKKRALGESKYNERVRECAEGLKILQKYLPNKRNLCDITVSEFEQYKSMIEDEVIKKRVTHVISENDRVLRAAEALKRNDLEELGRLLVEANDSIRDLYEVTGKELDTMTAEAMKVEGVLGARMTGAGFGGCTVNIVPEDKVDLFIQQVGENYKEQTGITPEFYVSEISDGAREIKI
notes: C-terminal 6xHis tag (pET28a-3238), E. coli BL21(DE3)
Km [4]: 0.99 ± 0.13 mM | kcat [4]: 1,704 ± 75 IU μmol^−1 | Km [5]: 13.71 ± 2.42 mM | kcat [5]: 4,853 ± 419 IU μmol^−1
